Results taken from patent US20140178293A1, “METHODS FOR IMAGING BONE PRECURSOR CELLS USING DUAL-LABELED IMAGING AGENTS TO DETECT MMP-9 POSITIVE CELLS” (BAYLOR COLLEGE OF MEDICINE, priority 2011, published 2014).
Like-named read-outs stand apart in the source and are kept apart here. Positions of bridges follow the written chain, without caps; N, C: chain ends. No end group written: not given here. *: point of attachment. DOTA = O=C(O)CN1CCN(CC(=O)O)CCN(CC(=O)*)CCN(CC(=O)O)CC1

Assays:
[1] = aqueous solution, 785/830 nm, used as standard; cited from earlier work
[2] = characterization of fluorescent properties; format: physicochemical
Experimental: Fluorescence intensity of the fluorophores was determined using the Fluorolog Tau-3 Spectrofluorometer (Horiba Jobin Yvon, Edison, N.J.) with excitation from a xenon arc lamp and absorbance was recorded using the DU-800 Spectrophotometer (Beckman Coulter, Brea Calif.). Fluorescence excitation and emission spectra were obtained at wavelengths of 785 and 830 nm respectively, with an integration time of 0.3 seconds for 1 μM solutions of IRDye 800CW, M2 and ^68Ga-M2 (n=4). Fluorescence measurements for IRDye 800CW and M2 were performed in aqueous solution under ambient conditions, whereas ^68Ga-M2 was prepared as previously described in NaOAc (pH 4) to provide an accurate representation of the ^68Ga-labeling scheme. Extinction coefficients were determined from the slope of absorbance at 785 nm as a function of the concentration of serial dilutions of each agent. Fluorescence quantum yield was determined by the comparative method of Williams et al. (Williams et al., 1983) using the quantum yield of ICGO (Φ=0.016) at 785/830 nm as a standard.

[3] = in vitro stability of ^64Cu-M2 in PBS or 500-fold excess DTPA (radio-HPLC); format: physicochemical; conditions: room temperature, normalized to 100% at t=0
Experimental: (§1) After radiolabeling, 150 μl of ^64Cu-M2 was diluted in equal volumes of PBS or DTPA solution and kept at room temperature. Aliquots were taken at 0, 2, 6 and 24 hrs post-incubation and analyzed by radio-HPLC. To evaluate serum stability, 150 μl of ^64Cu-M2 was added to 150 μl of 50% mouse serum and incubated at 37° C. An 80 μl aliquot was taken at each of the above-mentioned time points and added to 160 μl ice-cold acetonitrile. The samples were centrifuged at 14,000 g for 5 min and the supernatant was collected and analyzed by radio-HPLC.

[4] = target: T1, MMP-9 (Mus musculus, UniProt P41245)
[5] = target: T1, MMP-9; assay: in vivo NIR fluorescence imaging of ^64Cu-M2 in murine model of BMP-2 induced HO; design: injected intramuscularly into each hind limb quadriceps muscle of nonobese diabetic/severely compromised immunodeficient (NOD/SCID) mice; from tissue; host or cells: hind limb muscle of living NOD/SCID mice injected with AdBMP2- or Adempty-transduced human fibroblasts
Experimental: NIR fluorescence images were acquired using custom-built fluorescence imaging systems (Houston et al., 2005) 18 hours after intravenous administration of ^64Cu-M2. Briefly, a field of view was illuminated with 785 nm of light from a laser diode, outfitted with a convex lens and diffuser to create a uniform excitation field. The fluorescence was collected through holographic and interference filters placed before a Nikon camera lens. The images were finally captured by an electron-multiplying charge-coupled device camera (PhotonMax 512; Princeton Instruments, Princeton, N.J.) with 200 to 400 milliseconds of integration time. For acquisition of white-light images, the optical filters were removed, and a low-power lamp illuminated the subject. Image acquisition was accomplished by V++ software (Aukland, New Zealand).

[6] = in vitro; format: in vitro ADME; conditions: mouse, serum
Experimental: as §1

[7] = target: MMP-9 in mouse hind limb tissue (BMP-2 induced HO model, NOD/SCID mice) (mouse, UniProt P41245 108-730, limits assumed); assay: cell-based or functional assay
[8] = target: MMP-9 (AnaSpec, Fremont, Calif.) (UniProt P14780 107-707, limits assumed); assay: cell-based or functional assay
[9] = 1 μM solutions, IRDye 800CW and M2 aqueous, ^68Ga-M2 in NaOAc pH 4
[10] = 4 days post-implantation with 200x M1 as blocking (24 hours prior)

Chain of MMP-9 in mouse hind limb tissue (BMP-2 induced HO model, NOD/SCID mice) (P41245 108-730 limits assumed): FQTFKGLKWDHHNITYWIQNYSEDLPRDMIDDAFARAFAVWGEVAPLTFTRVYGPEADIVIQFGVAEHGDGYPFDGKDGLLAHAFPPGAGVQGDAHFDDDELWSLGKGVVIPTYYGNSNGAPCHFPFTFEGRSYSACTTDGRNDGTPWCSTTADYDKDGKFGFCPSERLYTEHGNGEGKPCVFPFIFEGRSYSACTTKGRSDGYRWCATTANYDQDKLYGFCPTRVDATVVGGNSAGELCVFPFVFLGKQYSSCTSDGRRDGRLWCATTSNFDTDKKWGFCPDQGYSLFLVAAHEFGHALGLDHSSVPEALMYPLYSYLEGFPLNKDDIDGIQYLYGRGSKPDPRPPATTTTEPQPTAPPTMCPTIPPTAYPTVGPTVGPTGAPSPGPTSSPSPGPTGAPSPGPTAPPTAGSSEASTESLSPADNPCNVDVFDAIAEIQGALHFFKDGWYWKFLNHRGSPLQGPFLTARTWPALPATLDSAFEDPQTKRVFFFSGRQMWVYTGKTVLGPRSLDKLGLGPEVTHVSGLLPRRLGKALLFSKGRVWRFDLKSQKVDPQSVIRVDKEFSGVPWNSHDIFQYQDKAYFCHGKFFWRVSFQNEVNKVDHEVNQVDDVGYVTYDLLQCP
T1 sequence (P41245 108-730): as the sequence (P41245 108-730 limits assumed) above
Chain of MMP-9 (AnaSpec, Fremont, Calif.) (P14780 107-707 limits assumed): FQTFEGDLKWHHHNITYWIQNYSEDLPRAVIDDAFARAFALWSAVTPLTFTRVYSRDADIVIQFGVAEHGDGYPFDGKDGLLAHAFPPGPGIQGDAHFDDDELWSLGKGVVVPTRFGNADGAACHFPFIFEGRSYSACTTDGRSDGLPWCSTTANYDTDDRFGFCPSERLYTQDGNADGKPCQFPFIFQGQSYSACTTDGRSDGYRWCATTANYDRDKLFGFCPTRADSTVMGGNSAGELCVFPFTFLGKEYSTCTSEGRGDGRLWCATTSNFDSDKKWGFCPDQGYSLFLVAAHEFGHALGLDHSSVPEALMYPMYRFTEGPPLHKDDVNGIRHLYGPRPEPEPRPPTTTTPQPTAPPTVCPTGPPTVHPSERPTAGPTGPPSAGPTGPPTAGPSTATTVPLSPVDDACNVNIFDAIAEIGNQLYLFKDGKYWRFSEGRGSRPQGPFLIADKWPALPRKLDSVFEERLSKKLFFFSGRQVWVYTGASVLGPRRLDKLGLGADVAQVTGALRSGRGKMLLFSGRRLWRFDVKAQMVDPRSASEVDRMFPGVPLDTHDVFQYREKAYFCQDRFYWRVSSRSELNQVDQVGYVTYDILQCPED

CC1(C)C(/C=C/C=C/C=C/C=C2\N(CCCCS(=O)(=O)O)c3ccc4ccccc4c3C2(C)C)=[N+](CCCCS(=O)(=O)[O-])c2ccc3ccccc3c21 [ICG, indocyanine green]
quantum yield of standard [1]: 0.016

CC1(C)C(=CC=C2CCCC(C=CC3=[N+](CCCCCC(=O)[O-])c4ccc(S(=O)(=O)[O-])cc4C3(C)C)=C2Oc2ccc(S(=O)(=O)[O-])cc2)N(CCCCS(=O)(=O)[O-])c2ccc(S(=O)(=O)[O-])cc21.[Na+].[Na+].[Na+].[Na+] [IRDye 800CW, reference compound]
Emission maximum [2, 9]: 830 nm | Excitation wavelength [2, 9]: 785 nm | Quantum yield ([2]; 785/830 nm, relative to ICG (Φ=0.016)): 0.034 | Extinction coefficient ([2]; absorbance at 785 nm, serial dilutions, mean ± SD (n=4)): 181,458 ± 2,189 M^−1cm^−1

CC(C)C[C@@H]1NC(=O)[C@H]([C@@H](C)O)NC(=O)[C@H](Cc2ccccc2)NC(=O)CNC(=O)[C@H](Cc2c[nH]c3ccccc23)NC(=O)[C@H](Cc2c[nH]cn2)NC(=O)[C@H](C)NC(=O)[C@@H](NC(=O)[C@H](CCCCNC(=O)CCCCC[N+]2=C(C=CC3=C(Oc4ccc(S(=O)(=O)O)cc4)C(=CC=C4N(CCCCS(=O)(=O)O)c5ccc(S(=O)(=O)O)cc5C4(C)C)CCC3)C(C)(C)c3cc(S(=O)(=O)[O-])ccc32)NC(=O)CN2CCN(CC(=O)O)CCN(CC(=O)O)CCN(CC(=O)O)CC2)CCCCNC(=O)C[C@@H](C(=O)O)NC1=O (single isomer, unassigned) [^64Cu-M2, metal not drawn]
percentage of intact component ([3]; DTPA, 2 hrs): 97.8 ± 1.3% | percentage of intact component ([3]; DTPA, 6 hrs): 97.7 ± 0.6% | percentage of intact component ([3]; DTPA, 24 hrs): 96.4±1.1% | percentage of intact component ([3]; PBS, 24 hrs): 98.9 ± 1.5% | Target/background ratio (PET/CT) ([4]; 2 days post-implantation, 200 μCi, 6 nmol i.v.): 3.29±0.9 | Target/background ratio (PET/CT) [4, 10]: 1.44±0.66 | Target/background ratio (PET/CT) ([4]; 4 days post-implantation, 200 μCi, 6 nmol i.v.): 4.02±1.39 | Target/background ratio (PET/CT) ([4]; 6 days post-implantation, 200 μCi, 6 nmol i.v.): 3.41±0.51 | % injected dose/g (PET/CT) ([4]; NOD/SCID, mouse, in vivo, iv, 6 nmol): 0.61 ± 0.04 % injected dose/g | whole-body distribution ([4]; mouse, in vivo, iv): slow clearance from circulation along with uptake in the liver and kidneys | Target/background ratio (NIR) ([5]; 2 days post-implantation, 18 hours after i.v. administration): 1.13 ± 0.03 | Target/background ratio (NIR) [5, 10]: 1.13 ± 0.18 | Target/background ratio (NIR) ([5]; 4 days post-implantation, 18 hours after i.v. administration): 1.24 ± 0.05 | Target/background ratio (NIR) ([5]; 6 days post-implantation, 18 hours after i.v. administration): 1.10 ± 0.03 | remaining at 2 h [6]: 99.6 ± 0.6% | remaining at 6 h [6]: 94.8 ± 0.6% | remaining at 24 h [6]: 53.7 ± 3.7%

(lactam 2,10) DOTA-KKAHWGFTLD ({DOTA}-KKAHWGFTLD; lactam 2-10) [M1]
bone formation by μCT after blocking dose ([4]; 200-fold excess of M1, μCT after 7 days): still exhibited bone formation

B1: ^64Cu-M2 (peptide)
peptide: {DOTA}-KKAHWGFTLD
modifications: lactam 2-10; also: DOTA chelating 64Cu, IRDye 800CW conjugated through a reactive amine group
Target/background ratio (NIR), day 2 post-implantation [7]: 1.13 ratio | Target/background ratio (NIR), day 4 post-implantation [7]: 1.24 ratio | Target/background ratio (NIR), day 4 with 200x M1 as blocking [7]: 1.13 ratio | Target/background ratio (NIR), day 6 post-implantation [7]: 1.1 ratio | Target/background ratio (PET/CT), day 2 post-implantation [7]: 3.29 ratio | Target/background ratio (PET/CT), day 4 post-implantation [7]: 4.02 ratio | Target/background ratio (PET/CT), day 4 with 200x M1 as blocking [7]: 1.44 ratio | Target/background ratio (PET/CT), day 6 post-implantation [7]: 3.41 ratio

B2: dual-conjugate M2 (M1 conjugated with IRDye 800CW) (peptide)
peptide: {DOTA}-KKAHWGFTLD
modifications: lactam 2-10; also: IRDye 800CW conjugated through an amine, site not given here
inhibition of MMP-9 by gelatin zymography [8]: 10 fold decrease compared to M1
